This assay deals with T1, 3 × FLAG-aPKC (atypical protein kinase C subtype iota, PKCι), wild type, full length (Homo sapiens (Human), UniProt P41743).
T1 chain: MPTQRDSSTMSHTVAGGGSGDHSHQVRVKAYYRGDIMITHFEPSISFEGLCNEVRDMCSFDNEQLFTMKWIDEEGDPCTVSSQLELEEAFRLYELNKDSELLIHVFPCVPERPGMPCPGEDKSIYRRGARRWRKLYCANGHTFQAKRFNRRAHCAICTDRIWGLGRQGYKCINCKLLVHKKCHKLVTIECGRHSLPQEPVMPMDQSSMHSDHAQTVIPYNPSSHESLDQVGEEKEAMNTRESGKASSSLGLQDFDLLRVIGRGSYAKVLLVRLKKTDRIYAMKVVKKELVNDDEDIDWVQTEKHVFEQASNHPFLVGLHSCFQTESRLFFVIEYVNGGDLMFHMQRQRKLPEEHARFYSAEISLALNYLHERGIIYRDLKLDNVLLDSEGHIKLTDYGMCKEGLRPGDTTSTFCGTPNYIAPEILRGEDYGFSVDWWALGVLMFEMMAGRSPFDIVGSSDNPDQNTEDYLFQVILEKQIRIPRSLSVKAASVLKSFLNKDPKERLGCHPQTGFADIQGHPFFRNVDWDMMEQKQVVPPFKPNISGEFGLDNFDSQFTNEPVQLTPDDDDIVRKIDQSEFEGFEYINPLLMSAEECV
Put plainly: co-expression, FLAG co-purification, SEC and glycerol gradient.

Results on one molecule are retold here after article PMC9573856 (2022).

B1: PAR6 (PAR6α), untagged, full length (protein)
chain: MARPQRTPARSPDSIVEVKSKFDAEFRRFALPRASVSGFQEFSRLLRAVHQIPGLDVLLGYTDAHGDLLPLTNDDSLHRALASGPPPLRLLVQKREADSSGLAFASNSLQRRKKGLLLRPVAPLRTRPPLLISLPQDFRQVSSVIDVDLLPETHRRVRLHKHGSDRPLGFYIRDGMSVRVAPQGLERVPGIFISRLVRGGLAESTGLLAVSDEILEVNGIEVAGKTLDQVTDMMVANSHNLIVTVKPANQRNNVVRGASGRLTGPPSAGPGPAEPDSDDDSSDLVIENRQPPSSNGLSQGPPCWDLHPGCRHPGTRSSLPSLDDQEQASSGWGSRIRGDGSGFSL
On to B1, for which the binding result is listed as “binds”.
